Data taken from patent US20250115640A1, “NEUROPROTECTIVE POLYPEPTIDE COMPOUND AND APPLICATION THEREOF” (Innerse (Zhuhai) Pharmaceutical Co., Ltd., priority 2021, published 2025).
Several values for one entry are separate records, joined by “and”; a condition that tells them apart may be missing. Equal entries are not always repeated.

Experiments:
Format in all cases: in vivo, Sprague-Dawley (SD) rats
[1] = system: MCAO ischemia-reperfusion model; test: MCAO ischemia-reperfusion model, rat Neurological Severity Scores (NSS) (Example 6)
Description: 3) Cerebral ischemia reperfusion surgery: • A. Isolating and exposing blood vessels: the skin of the surgical area was shaved, and the rats were placed under a surgical microscope. The skin of the rat was cut along the midline with ophthalmic scissors, with a cut of about 2 cm length. Through the right neck of the rat, the muscle tissue of the right neck was bluntly isolated and opened with a microforcep to expose the right common carotid artery (CCA), and then isolated upward along the common carotid artery to further expose the external carotid artery (ECA) and internal carotid artery (ICA); • B. The proximal end of CCA was ligated and the CCA at the Y-shaped branch was temporarily clamped; the ligated site of CCA to the clamped site of ICA were threaded, tied with a loose knot (pre-ligation) for later use, and a small incision at the proximal end of the pre-ligation was made; • C. Inserting the suture emboli: Suture emboli No. 4-0 was inserted through the incision of CCA, pushed slowly and gently into the internal carotid artery, and stopped temporarily at the artery clamp of ICA. The pre-ligation thread was tied tightly (to avoid severe bleeding when pushing the suture emboli), then the artery clamp that blocked the blood flow of ICA was removed, and the suture emboli was immediately pushed into ICA until entering into the cranium. One should be careful not to insert the suture emboli into the pterygopalatine artery, which is another branch of the internal carotid artery and is one of the extra-cranial branches of ICA. […] Then the insertion was terminated and the time was recorded. […] Note: The first digit of the animal number represents the group (1, 2, 3 and 4 represent the model control group, S3 group, t-PA group and S3+t-PA group respectively), and the second letter represents the gender (M is male), the last three digits represent the animal serial number. a means giving 3 mL S3 and 3 mL sterile water for injection, b means giving 3 mL t-PA and 3 mL sterile water for injection, c means giving 3 mL S3 and 3 mL t-PA. • Route of administration: tail vein injection; • Administration time: immediately after ischemia-reperfusion (within 5 minutes); • Dosing frequency and cycle: 1 dose; • The day of modeling was defined as D0, and the day before was defined as D-1. • Measurement time: 24 hours before the modeling, 24 and 72 hours after the modeling; • Animals measured: all the surviving animals planned to be measured; • Measurement method: a motor function test, sensory test, balance test, and reflex and abnormal behavior test were performed on animals, according to the rat for details. […]

[2] = Body weight of MCAO model animals (Example 6); details: individual animal
Description: • Animals measured: all the surviving experimental animals planned to be measured; • Measurement time: the body weight was measured at least twice during the adaptation period, once 24 hours before surgery for grouping, and once 24 hours after surgery.
Cerebral ischemia-reperfusion is an acute injury model, wherein the weight of experimental animals will drop dramatically after MCAO modeling. Thus, the weight of experimental animals is one of the most basic sensitive parameters to comprehensively reflect the health status of animals. In this experiment, the body weight of all the animals was monitored on the day before the surgery and on the first day after the surgery, and the changes of animal's body weight were observed and recorded.

[3] = system: MCAO ischemia-reperfusion model; test: MCAO ischemia-reperfusion model, TTC staining, cerebral infarct area and inhibition rate (Example 6)
[4] = 3 mg/kg i.v. immediately after reperfusion, 24 h after surgery, group mean ± SD

B1: t-PA: recombinant human TNK tissue-type plasminogen activator for injection (Mingfule) purchased from Guangzhou Mingkang Bioengineering Co., Ltd. (protein, UniProt P00750 36-562, looked up, variant T103N N117Q K296A H297A R298A R299A)
Tissue-type plasminogen …: SYQVICRDEKTQMIYQQHQSWLRPVLRSNRVEYCWCNSGRAQCHSVPVKSCSEPRCFNGGTCQQALYFSDFVCQCPEGFAGKCCEIDTRATCYEDQGISYRGNWSTAESGAECTNWQSSALAQKPYSGRRPDAIRLGLGNHNYCRNPDRDSKPWCYVFKAGKYSSEFCSTPACSEGNSDCYFGNGSAYRGTHSLTESGASCLPWNSMILIGKVYTAQNPSAQALGLGKHNYCRNPDGDAKPWCHVLKNRRLTWEYCDVPSCSTCGLRQYSQPQFRIKGGLFADIASHPWQAAIFAAAAASPGERFLCGGILISSCWILSAAHCFQERFPPHHLTVILGRTYRVVPGEEEQKFEVEKYIVHKEFDDDTYDNDIALLQLKSDSSRCAQESSVVRTVCLPPADLQLPDWTECELSGYGKHEALSPFYSERLKEAHVRLYPSSRCTSQHLLNRTVTDNMLCAGDTRSGGPQANLHDACQGDSGGPLVCLNDGRMTLVGIISWGLGCGQKDVPGVYTKVTNYLDWIRDNMRP
modifications: tenecteplase (TNK-tPA), Mingfule
For B1, which “NSS D2, individual animals” value ([1]; 3 mg/kg i.v. immediately after reperfusion, after surgery, individual animal) is on record?
Its value is 7 (2×) and 8 and 7.5 (2×) and 6.5 (2×) and 6 and 5.5.

What about the “NSS D 2” value ([1]; 3 mg/kg i.v. immediately after reperfusion, one day after surgery, group mean ± SD) of the same molecule?
The value was 6.83±0.75.

What about the NSS reduction rate ([1]; one day after surgery, relative to model control group, group mean ± SD) of the same molecule?
Its NSS reduction rate is 11.83±9.62%.

And the “NSS reduction rate, individual animals” value ([1]; relative to model control group, individual animal)?
Its value is 9.68% (2×) and −3.23% and 3.23% (2×) and 16.13% (2×) and 22.58% and 29.03%.

And the “Body weight D 2, individual animals” value ([2]; after surgery and administration)?
Its value is 230.57 g and 203.58 g and 203.63 g and 199.35 g and 205.31 g and 223.28 g and 223.30 g and 217.60 g and 200.68 g.

And the “Body weight D 0, individual animals” value ([2]; before surgery (baseline))?
The value was 289.15 g and 246.68 g and 263.91 g and 259.23 g and 273.31 g and 281.77 g and 281.59 g and 273.94 g and 251.02 g.

And the “Infarct area, individual animals” value ([3]; 3 mg/kg i.v. immediately after reperfusion, 24 h after modeling, individual animal)?
Its value is 19.069% and 18.394% and 16.546% and 21.064% and 19.195% and 18.719% and 16.209% and 18.356% and 19.147%.

What about the Infarct area weight [3, 4] of the same molecule?
Its Infarct area weight is 0.26 ± 0.022 g.

What about the infarct area [3, 4] of the same molecule?
Its infarct area is 18.522±1.372%.

And the “Cerebral infarct inhibition rate” value ([3]; 3 mg/kg i.v. immediately after reperfusion, 24 h after surgery, vs model control, group mean ± SD)?
Its value is 22.802±5.719%.

And the “Weight of infarct area, individual animals” value ([3]; 24 h after modeling, individual animal)?
The value was 0.291 g and 0.268 g and 0.229 g and 0.289 g and 0.272 g and 0.260 g and 0.230 g and 0.239 g and 0.265 g.

And the “Cerebral infarct inhibition rate, individual animals” value ([3]; vs model control group, individual animal)?
The value was 20.521% and 23.336% and 31.037% and 12.207% and 19.996% and 21.984% and 32.445% and 23.493% and 20.196%.
